Measurements: patent US20190134153A1, “IMMUNOMODULATORY EFFECT OF INHALED KINASE INHIBITOR PEPTIDES IN LUNG” (MOERAE MATRIX, INC., priority 2017, published 2019)

What was measured:
Assay in all cases: Kinase Profiling Assay
Format in all cases: biochemical
Conditions in all cases: 100 μM
IRR(h) = IRR(h) (Homo sapiens, UniProt P14616)
cSRC(h) = cSRC(h) (Homo sapiens, UniProt P12931)
CHK1(h) = molecular target: T1, CHK1(h) (Homo sapiens, UniProt O14757)
T1 sequence (O14757 1-476): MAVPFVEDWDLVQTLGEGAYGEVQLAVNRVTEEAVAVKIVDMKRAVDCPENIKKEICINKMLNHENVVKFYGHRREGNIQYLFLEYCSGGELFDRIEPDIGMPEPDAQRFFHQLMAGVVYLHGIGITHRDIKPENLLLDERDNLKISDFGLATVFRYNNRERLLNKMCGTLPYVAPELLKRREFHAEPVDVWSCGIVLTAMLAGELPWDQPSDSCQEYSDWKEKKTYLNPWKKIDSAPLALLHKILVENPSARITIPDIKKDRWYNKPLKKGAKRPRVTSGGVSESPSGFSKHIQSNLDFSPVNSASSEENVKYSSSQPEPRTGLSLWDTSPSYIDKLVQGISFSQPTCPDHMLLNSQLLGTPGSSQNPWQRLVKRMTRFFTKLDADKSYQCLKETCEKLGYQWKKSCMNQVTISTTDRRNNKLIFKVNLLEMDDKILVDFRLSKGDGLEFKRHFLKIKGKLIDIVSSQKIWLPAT

Haspin(h) = molecular target: T2, Haspin(h) (Homo sapiens, UniProt Q8TF76)
T2 sequence (Q8TF76 1-798): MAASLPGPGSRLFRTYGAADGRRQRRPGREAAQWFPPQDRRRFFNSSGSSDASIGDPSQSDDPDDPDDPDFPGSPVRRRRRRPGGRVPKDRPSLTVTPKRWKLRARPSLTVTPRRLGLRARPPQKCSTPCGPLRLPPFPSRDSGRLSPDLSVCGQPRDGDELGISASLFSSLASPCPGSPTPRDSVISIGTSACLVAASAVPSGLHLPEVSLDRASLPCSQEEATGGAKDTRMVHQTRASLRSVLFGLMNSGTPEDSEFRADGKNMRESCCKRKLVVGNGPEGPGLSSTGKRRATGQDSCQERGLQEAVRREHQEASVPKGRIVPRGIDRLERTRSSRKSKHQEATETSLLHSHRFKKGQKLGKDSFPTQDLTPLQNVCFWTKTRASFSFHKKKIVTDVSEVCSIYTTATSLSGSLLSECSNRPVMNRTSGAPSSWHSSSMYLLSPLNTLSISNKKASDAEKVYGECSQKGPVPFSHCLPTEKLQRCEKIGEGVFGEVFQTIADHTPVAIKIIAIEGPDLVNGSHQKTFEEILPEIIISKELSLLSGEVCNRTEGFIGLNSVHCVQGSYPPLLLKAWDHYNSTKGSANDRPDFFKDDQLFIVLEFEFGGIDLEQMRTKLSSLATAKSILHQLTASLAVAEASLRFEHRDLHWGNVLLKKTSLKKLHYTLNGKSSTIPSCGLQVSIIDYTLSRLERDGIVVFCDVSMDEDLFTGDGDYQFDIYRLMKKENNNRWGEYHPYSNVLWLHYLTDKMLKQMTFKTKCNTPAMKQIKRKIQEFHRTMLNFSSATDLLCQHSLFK

SGK(h) = molecular target: T3, SGK(h) (Homo sapiens, UniProt O00141)
T3 sequence (O00141 1-431): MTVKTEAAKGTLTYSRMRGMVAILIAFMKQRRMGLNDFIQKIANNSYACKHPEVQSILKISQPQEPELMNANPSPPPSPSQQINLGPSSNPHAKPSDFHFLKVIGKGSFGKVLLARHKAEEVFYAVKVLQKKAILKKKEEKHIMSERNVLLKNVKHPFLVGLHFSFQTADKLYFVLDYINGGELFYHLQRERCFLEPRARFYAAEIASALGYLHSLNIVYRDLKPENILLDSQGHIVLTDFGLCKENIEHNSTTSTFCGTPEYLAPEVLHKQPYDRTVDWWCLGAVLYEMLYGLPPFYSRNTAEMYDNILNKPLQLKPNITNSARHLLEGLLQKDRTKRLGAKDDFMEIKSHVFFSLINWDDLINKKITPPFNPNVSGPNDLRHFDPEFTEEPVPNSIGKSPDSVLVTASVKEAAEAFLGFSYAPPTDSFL

GSK3β(h) = GSK3β(h) (Homo sapiens, UniProt P49841)
HIPK1(h) = HIPK1(h) (Homo sapiens, UniProt Q86Z02)
WNK2(h) = WNK2(h) (Homo sapiens, UniProt Q9Y3S1)
Tie2(Y897S)(h) = Tie2(Y897S)(h) (Homo sapiens, UniProt Q02763, Y897S)
PTK5(h) = PTK5(h) (Homo sapiens, UniProt P42685)
CaMKIIγ(h) = CaMKIIγ(h) (Homo sapiens, UniProt Q13555)
RIPK2(h) = RIPK2(h) (Homo sapiens, UniProt O43353)
FGFR4(h) = FGFR4(h) (Homo sapiens, UniProt P22455)
PKCη(h) = PKCη(h) (Homo sapiens, UniProt P24723)
Sequence of PKCη(h) (P24723 whole entry): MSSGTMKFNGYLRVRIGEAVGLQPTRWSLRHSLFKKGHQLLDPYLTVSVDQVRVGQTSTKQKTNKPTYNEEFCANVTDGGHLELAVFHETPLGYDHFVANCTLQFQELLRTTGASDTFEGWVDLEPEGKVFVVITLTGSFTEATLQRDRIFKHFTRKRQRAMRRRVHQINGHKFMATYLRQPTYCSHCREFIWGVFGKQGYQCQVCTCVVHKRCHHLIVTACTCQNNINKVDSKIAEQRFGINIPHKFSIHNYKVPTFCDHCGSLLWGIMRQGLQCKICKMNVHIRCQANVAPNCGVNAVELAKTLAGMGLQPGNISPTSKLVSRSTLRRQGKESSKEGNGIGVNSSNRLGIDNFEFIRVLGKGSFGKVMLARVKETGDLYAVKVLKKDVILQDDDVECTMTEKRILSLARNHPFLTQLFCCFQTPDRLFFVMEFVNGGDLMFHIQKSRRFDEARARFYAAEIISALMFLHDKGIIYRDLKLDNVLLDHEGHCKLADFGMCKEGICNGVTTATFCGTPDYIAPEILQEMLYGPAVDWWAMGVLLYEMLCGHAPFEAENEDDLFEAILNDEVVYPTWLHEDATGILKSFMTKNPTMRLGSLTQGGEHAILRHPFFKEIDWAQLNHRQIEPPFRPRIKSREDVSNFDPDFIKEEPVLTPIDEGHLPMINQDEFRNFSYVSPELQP

Sequence of WNK2(h) (Q9Y3S1 whole entry): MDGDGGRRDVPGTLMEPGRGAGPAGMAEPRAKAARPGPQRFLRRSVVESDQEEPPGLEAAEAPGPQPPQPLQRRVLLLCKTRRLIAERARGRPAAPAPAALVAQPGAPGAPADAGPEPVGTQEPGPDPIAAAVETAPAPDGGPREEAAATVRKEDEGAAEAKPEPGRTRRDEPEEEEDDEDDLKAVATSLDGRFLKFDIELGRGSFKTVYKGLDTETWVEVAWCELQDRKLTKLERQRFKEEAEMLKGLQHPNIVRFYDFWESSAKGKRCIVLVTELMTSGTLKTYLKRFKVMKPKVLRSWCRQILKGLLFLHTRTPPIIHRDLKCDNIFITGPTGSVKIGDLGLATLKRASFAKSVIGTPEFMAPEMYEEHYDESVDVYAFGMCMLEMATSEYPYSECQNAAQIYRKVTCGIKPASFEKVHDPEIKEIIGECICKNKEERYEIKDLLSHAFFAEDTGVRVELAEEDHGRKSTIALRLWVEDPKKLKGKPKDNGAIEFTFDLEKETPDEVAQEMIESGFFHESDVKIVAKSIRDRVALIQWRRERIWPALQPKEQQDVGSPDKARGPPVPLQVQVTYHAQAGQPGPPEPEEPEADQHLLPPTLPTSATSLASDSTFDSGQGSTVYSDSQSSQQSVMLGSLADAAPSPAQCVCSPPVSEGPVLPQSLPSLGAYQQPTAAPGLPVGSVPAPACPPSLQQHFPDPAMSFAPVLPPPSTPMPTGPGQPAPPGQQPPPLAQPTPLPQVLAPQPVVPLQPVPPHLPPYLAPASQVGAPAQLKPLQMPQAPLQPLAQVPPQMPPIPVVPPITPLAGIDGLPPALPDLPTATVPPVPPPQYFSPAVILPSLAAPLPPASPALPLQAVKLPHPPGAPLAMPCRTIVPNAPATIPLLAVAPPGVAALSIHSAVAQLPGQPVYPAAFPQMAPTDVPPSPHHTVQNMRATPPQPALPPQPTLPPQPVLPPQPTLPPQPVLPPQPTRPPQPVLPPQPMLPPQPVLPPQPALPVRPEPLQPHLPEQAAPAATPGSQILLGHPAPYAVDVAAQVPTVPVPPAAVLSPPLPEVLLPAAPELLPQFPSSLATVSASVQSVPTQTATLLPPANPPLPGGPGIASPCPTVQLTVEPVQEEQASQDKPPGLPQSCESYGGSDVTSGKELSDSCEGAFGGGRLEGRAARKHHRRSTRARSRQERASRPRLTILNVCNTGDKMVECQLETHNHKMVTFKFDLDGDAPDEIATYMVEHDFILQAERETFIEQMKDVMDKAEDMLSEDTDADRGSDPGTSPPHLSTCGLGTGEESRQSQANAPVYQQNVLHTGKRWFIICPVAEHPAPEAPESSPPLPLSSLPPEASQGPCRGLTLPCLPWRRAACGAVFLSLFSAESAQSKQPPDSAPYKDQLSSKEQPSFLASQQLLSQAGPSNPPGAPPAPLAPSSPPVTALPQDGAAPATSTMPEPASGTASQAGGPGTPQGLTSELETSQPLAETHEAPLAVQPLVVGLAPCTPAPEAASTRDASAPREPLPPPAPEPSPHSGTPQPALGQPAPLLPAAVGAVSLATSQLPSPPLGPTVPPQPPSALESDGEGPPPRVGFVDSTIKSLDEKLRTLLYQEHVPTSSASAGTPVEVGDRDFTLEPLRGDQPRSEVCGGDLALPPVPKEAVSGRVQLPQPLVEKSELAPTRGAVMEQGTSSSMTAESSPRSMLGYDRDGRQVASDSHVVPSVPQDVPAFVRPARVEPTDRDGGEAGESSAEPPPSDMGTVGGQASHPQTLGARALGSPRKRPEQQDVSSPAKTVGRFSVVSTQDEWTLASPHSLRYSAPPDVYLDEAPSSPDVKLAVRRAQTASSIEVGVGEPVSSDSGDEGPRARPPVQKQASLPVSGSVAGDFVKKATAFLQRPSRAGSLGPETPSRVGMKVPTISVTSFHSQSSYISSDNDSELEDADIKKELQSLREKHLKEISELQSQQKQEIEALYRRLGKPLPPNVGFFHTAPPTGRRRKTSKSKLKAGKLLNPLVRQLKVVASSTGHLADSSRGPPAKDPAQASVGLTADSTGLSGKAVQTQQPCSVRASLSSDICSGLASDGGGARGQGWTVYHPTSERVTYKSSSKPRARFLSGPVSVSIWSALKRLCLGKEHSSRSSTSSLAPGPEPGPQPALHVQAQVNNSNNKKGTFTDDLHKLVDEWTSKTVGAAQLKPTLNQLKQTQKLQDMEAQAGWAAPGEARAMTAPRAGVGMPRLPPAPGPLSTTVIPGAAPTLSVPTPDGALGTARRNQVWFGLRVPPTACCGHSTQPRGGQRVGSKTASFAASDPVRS
Sequence of CaMKIIγ(h) (Q13555 whole entry): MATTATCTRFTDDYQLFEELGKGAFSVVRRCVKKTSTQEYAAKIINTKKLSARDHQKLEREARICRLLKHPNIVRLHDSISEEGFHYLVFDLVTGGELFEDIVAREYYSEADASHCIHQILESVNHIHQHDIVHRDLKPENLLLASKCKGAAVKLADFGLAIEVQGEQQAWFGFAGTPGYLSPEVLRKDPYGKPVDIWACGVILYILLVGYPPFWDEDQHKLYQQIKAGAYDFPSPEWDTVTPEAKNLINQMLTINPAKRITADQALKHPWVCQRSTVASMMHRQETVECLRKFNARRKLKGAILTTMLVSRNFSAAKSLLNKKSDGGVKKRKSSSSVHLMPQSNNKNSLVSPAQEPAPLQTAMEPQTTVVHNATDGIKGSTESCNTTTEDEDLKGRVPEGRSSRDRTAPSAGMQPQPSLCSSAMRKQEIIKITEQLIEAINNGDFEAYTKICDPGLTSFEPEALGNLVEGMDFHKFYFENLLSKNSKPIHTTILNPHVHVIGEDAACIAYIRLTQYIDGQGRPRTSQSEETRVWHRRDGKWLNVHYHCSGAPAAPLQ
Sequence of RIPK2(h) (O43353 whole entry): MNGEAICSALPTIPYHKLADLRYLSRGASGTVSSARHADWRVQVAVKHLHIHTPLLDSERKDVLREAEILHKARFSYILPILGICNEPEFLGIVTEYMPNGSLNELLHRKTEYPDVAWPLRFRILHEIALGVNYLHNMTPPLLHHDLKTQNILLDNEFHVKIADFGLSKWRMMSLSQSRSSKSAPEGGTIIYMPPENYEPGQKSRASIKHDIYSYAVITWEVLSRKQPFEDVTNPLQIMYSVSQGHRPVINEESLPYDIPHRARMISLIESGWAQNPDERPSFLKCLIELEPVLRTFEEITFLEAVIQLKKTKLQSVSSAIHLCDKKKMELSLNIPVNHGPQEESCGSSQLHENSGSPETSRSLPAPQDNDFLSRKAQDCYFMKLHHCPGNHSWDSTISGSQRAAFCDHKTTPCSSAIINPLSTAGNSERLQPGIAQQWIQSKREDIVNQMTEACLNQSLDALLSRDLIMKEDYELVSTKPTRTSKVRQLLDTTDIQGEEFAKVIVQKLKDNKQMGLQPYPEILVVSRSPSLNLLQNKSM
Sequence of PTK5(h) (P42685 whole entry): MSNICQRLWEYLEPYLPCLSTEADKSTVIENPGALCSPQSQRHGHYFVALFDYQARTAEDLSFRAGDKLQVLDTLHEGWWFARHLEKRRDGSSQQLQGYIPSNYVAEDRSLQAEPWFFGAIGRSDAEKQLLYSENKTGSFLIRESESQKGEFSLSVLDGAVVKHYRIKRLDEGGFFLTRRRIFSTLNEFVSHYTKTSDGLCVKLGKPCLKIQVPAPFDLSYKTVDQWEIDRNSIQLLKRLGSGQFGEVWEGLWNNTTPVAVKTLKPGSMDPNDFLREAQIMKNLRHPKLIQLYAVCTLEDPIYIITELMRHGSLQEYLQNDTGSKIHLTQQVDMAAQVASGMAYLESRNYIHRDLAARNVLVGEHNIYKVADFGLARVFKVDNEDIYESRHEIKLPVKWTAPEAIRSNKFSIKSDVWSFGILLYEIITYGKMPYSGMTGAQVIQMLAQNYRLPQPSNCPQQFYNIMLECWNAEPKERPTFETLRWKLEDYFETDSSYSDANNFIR
Sequence of GSK3β(h) (P49841 whole entry): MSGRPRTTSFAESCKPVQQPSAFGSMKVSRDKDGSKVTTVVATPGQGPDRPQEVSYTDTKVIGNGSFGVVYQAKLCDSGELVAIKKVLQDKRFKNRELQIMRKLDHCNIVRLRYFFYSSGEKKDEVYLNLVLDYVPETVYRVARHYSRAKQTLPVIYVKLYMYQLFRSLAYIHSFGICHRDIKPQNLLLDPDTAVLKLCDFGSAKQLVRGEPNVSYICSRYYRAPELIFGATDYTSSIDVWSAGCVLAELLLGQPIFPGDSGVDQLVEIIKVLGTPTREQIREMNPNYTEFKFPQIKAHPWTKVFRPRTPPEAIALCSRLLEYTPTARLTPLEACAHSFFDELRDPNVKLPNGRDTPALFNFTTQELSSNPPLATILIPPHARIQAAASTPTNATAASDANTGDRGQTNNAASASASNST

Sequence | % activity (IRR(h)) [%] | % activity (cSRC(h)) [%] | % activity (CHK1(h)) [%] | % activity (Haspin(h)) [%] | % activity (SGK(h)) [%] | % activity (GSK3β(h)) [%] | % activity (HIPK1(h)) [%] | % activity (WNK2(h)) [%] | % activity (Tie2(Y897S)(h)) [%] | % activity (PTK5(h)) [%] | % activity (CaMKIIγ(h)) [%] | % activity (RIPK2(h)) [%] | % activity (FGFR4(h)) [%] | % activity (PKCη(h)) [%]
FAKLAARLYRKALARQLGVAA [MMI-0300] | 8 | 26 | 91 | 48 | 48 | 205 | 74 | 64 | 83 | 132 | 5 | 97 | 28 | –
YARAAARQARAKALNRQLGVA [MMI-0200] | 69 | 32 | – | 71 | – | 132 | – | 94 | 85 | 108 | 94 | 98 | 75 | 101
KAFAKLAARLYRKALARQLGVAA [MMI-0400] | 8 | 14 | 87 | 36 | 54 | 202 | 91 | 54 | 87 | 129 | 3 | 98 | 19 | 98
HRRIKAWLKKIKALARQLGVAA [MMI-0500] | 10 | 30 | 65 | 25 | 2 | 238 | 47 | 8 | 80 | 96 | 3 | 30 | 3 | 45
